Test results published in the supplement of paper PMC10126150.
± gives the standard deviation of the averaged measurements.

test system: ATP; assay: switch fluorescence ratio, 500 uM ATP over buffer (Cy3 cluster intensity, sum of 5 cycles each) (fold (ratio)); higher = stronger signal-on switching upon ATP binding; sequences stand for … in TCGTCGGCAGCGTCAGATGTGTATAAGAGACAGTTTTTTTTTTTTTTTTTTTTTTTTT…TC; settings: aptamer strand: ATP DNA aptamer (quencher-CACCTGGGGGAGTATTGCGGAGGAAGG + anchor), 100 nM annealed; ATP concentration: 500 uM
How it was run: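 Values give the fluorescence ratio for each switch-domain sequence, averaged from per-cluster ratios of summed target-cycle to summed buffer-cycle Cy3 intensity. The Cy3-labelled switching-strand clusters sat on a modified Illumina MiSeq flow-cell, were annealed to 100 nM quencher-labelled ATP aptamer, and were imaged in selection buffer, then after 15 min with 500 uM ATP at 22 °C. Five cycles ran with NaOH stripping and re-annealing between them, and clusters outside 100-1000 RFU were excluded.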
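Further: ATP exposure 15 min at 22 °C before imaging.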

Sequence | switch fluorescence ratio
GTTTTATGCT | 1.01 ± 0.017
GTTTTCAAGT | 0.979 ± 0.039
GTTTTCACGT | 1.01 ± 0.013
GTTTTCCGGA | 0.996 ± 0.05
GTTTTCGGGC | 0.987 ± 0.067
GTTTTCGTTT | 0.9711 ± 0.0058
GTTTTGAAAA | 0.949 ± 0.019
GTTTTGACAC | 1.02 ± 0.013
GTTTTGAGGT | 1.02 ± 0.028
GTTTTGCTGT | 0.986 ± 0.046
GTTTTGGGGT | 0.986 ± 0.013
GTTTTGGTTG | 1.01 ± 0.027
GTTTTGGTTT | 0.986 ± 0.024
GTTTTGTGGA | 1.01 ± 0.007
GTTTTGTGGT | 0.954 ± 0.021
GTTTTTAAGT | 1.03 ± 0.04
GTTTTTACGG | 1.04 ± 0.0059
GTTTTTAGGC | 1.02 ± 0.094
GTTTTTAGTG | 0.983 ± 0.038
GTTTTTCCCC | 1.11 ± 0.14
GTTTTTCGCC | 1 ± 0.02
GTTTTTGAGG | 0.977 ± 0.028
GTTTTTGCCA | 1.01 ± 0.016
GTTTTTGGAG | 0.98219 ± 0.00097
GTTTTTGTGA | 0.9693 ± 0.0079

Sequence | switch fluorescence ratio
GTTTTTGTGG | 0.992 ± 0.01
GTTTTTGTTT | 1 ± 0.033
GTTTTTTAAC | 1.01 ± 0.04
GTTTTTTAGA | 0.9728 ± 0.0018
GTTTTTTCCG | 0.992 ± 0.012
GTTTTTTCGG | 0.993 ± 0.023
GTTTTTTGAT | 1.008 ± 0.0042
GTTTTTTGGT | 0.982 ± 0.03
GTTTTTTTAA | 1 ± 0.034
GTTTTTTTAG | 1 ± 0.033
GTTTTTTTCG | 0.9829 ± 0.007
GTTTTTTTT | 1.05 ± 0.069
TAAAAAACGG | 0.954 ± 0.042
TAAAAAGCGA | 0.987 ± 0.012
TAAAAAGCGC | 1.03 ± 0.03
TAAAAAGGTA | 1.02 ± 0.028
TAAAAAGTAC | 1.02 ± 0.027
TAAAAAGTAG | 0.992 ± 0.024
TAAAAATACA | 1.1 ± 0.13
TAAAAATCCC | 1.16 ± 0.083
TAAAAATCTT | 1.01 ± 0.041
TAAAAATGAG | 1.014 ± 0.0069
TAAAAATTGG | 0.997 ± 0.014
TAAAACAGCG | 1.01 ± 0.012
TAAAACGCTC | 1.07 ± 0.073

Sequence | switch fluorescence ratio
TAAAACTCCA | 1.03 ± 0.038
TAAAAGAGGA | 0.9974 ± 0.0058
TAAAAGAGGG | 0.9558 ± 0.0023
TAAAAGATAG | 1 ± 0.019
TAAAAGGGCT | 0.999 ± 0.011
TAAAAGGGTA | 1 ± 0.019
TAAAAGGGTT | 1 ± 0.031
TAAAAGTATT | 1.03 ± 0.068
TAAAAGTCGG | 1.01 ± 0.019
TAAAAGTG | 0.961 ± 0.05
TAAAAGTTTA | 1.04 ± 0.016
TAAAAGTTTG | 0.996 ± 0.034
TAAAATAGGG | 1.01 ± 0.018
TAAAATGTTC | 0.988 ± 0.048
TAAAATTGAG | 1 ± 0.024
TAAAATTGTA | 0.9917 ± 0.0035
TAAACCGGTT | 0.984 ± 0.027
TAAACGAAGT | 0.956 ± 0.054
TAAAGAATTT | 0.98 ± 0.032
TAAAGAGGGG | 1 ± 0.021
TAAAGATGG | 0.995 ± 0.027
TAAAGCTTAA | 1.05 ± 0.041
TAAAGGATG | 0.968 ± 0.019
TAAAGGCACG | 1.03 ± 0.07
TAAAGGCGGG | 0.987 ± 0.023

Sequence | switch fluorescence ratio
TAAAGGCGTG | 0.96 ± 0.022
TAAAGGGCTT | 1.02 ± 0.018
TAAAGGGGAG | 1.01 ± 0.019
TAAAGGGTAA | 0.9888 ± 0.0044
TAAAGGGTGG | 0.987 ± 0.032
TAAAGGTTCG | 0.9618 ± 0.009
TAAAGGTTCT | 1.02 ± 0.03
TAAAGTAAAT | 0.9668 ± 0.0028
TAAAGTGCAT | 1.036 ± 0.0066
TAAAGTGCGA | 0.993 ± 0.035
TAAATAAATT | 1.01 ± 0.044
TAAATAAGTT | 1.004 ± 0.0097
TAAATACTCG | 1.25 ± 0.044
TAAATCCTTT | 1 ± 0.053
TAAATCGGCA | 1.004 ± 0.0021
TAAATCGGCG | 0.989 ± 0.023
TAAATGACTA | 0.987 ± 0.018
TAAATGGGTG | 1.03 ± 0.028
TAAATGTCTG | 0.995 ± 0.015
TAAATTAATC | 1.01 ± 0.018
TAAATTAGGG | 0.992 ± 0.033
TAAATTGGTA | 1.04 ± 0.016
TAACAAATAG | 0.9741 ± 0.0062
TAACAAGGGT | 1 ± 0.016
TAACACTCCT | 1.1 ± 0.02

Sequence | switch fluorescence ratio
TAACAGAAGA | 0.991 ± 0.017
TAACAGGGGG | 0.995 ± 0.017
TAACAGGTTT | 0.989 ± 0.016
TAACAGTGTG | 1.04 ± 0.046
TAACATCTGT | 0.975 ± 0.021
TAACCGCTTT | 1.55 ± 0.7
TAACGAGATT | 1.02 ± 0.026
TAACGCATG | 1.13 ± 0.082
TAACGCTTTT | 1.002 ± 0.0065
TAACGGAGGG | 0.993 ± 0.04
TAACGGGATG | 1 ± 0.017
TAACGTGTTT | 1 ± 0.017
TAACTAGGAG | 1.12 ± 0.16
TAACTATGTA | 1.02 ± 0.034
TAACTGTGGA | 1.08 ± 0.085
TAACTTACAT | 1.19 ± 0.018
TAACTTGCTC | 1.05 ± 0.054
TAACTTTGGC | 0.9536 ± 0.0091
TAAGAAATGG | 1.02 ± 0.079
TAAGAAGTTA | 1.02 ± 0.03
TAAGAATCGC | 1.15 ± 0.2
TAAGAATGTT | 0.977 ± 0.0098
TAAGAGCTGA | 0.985 ± 0.023
TAAGAGGCAC | 0.996 ± 0.052
TAAGAGGGCT | 0.996 ± 0.022

Sequence | switch fluorescence ratio
TAAGAGGGGT | 1.03 ± 0.07
TAAGAGTACT | 1.008 ± 0.0019
TAAGAGTGCA | 0.973 ± 0.027
TAAGATCTTA | 0.997 ± 0.015
TAAGATGTAG | 0.9957 ± 0.0011
TAAGATGTTG | 1.01 ± 0.019
TAAGATTACA | 1.017 ± 0.006
TAAGATTGTT | 1.02 ± 0.017
TAAGCAGGTT | 0.995 ± 0.017
TAAGCATAAG | 1.01 ± 0.027
TAAGCCGCCT | 0.998 ± 0.016
TAAGCCTTTT | 1.038 ± 0.0024
TAAGCGCGGC | 1.055 ± 0.0079
TAAGCGGGG | 1.002 ± 0.0026
TAAGCGGGGA | 1.027 ± 0.0054
TAAGCGTCTG | 1.013 ± 0.0057
TAAGCTATTT | 1.02 ± 0.025
TAAGCTGCGT | 0.989 ± 0.03
TAAGCTTACA | 1.04 ± 0.032
TAAGCTTTGT | 0.9902 ± 0.0025
TAAGGAATGC | 1.54 ± 0.035
TAAGGAATTG | 1.01 ± 0.045
TAAGGACGGG | 1.02 ± 0.03
TAAGGAGGTG | 1.033 ± 0.008
TAAGGAGTTT | 0.972 ± 0.016

Sequence | switch fluorescence ratio
TAAGGCAC | 1.04 ± 0.017
TAAGGCGGAG | 0.9951 ± 0.0032
TAAGGCGGGG | 0.993 ± 0.042
TAAGGCTACC | 1.048 ± 0.004
TAAGGCTGC | 1.04 ± 0.076
TAAGGGCAGA | 1.02 ± 0.045
TAAGGGGAAA | 0.979 ± 0.026
TAAGGGGGAA | 1.03 ± 0.06
TAAGGGGGCC | 1.08 ± 0.16
TAAGGGGGCT | 1.01 ± 0.034
TAAGGGGTCC | 0.979 ± 0.013
TAAGGGGTTC | 0.982 ± 0.022
TAAGGGGTTT | 1.03 ± 0.058
TAAGGGTAAT | 0.973 ± 0.046
TAAGGGTGCA | 0.994 ± 0.064
TAAGGGTTTT | 1 ± 0.036
TAAGGTCGAT | 1.01 ± 0.022
TAAGGTGGTA | 1.02 ± 0.014
TAAGGTTTTG | 1.01 ± 0.022
TAAGGTTTTT | 1.03 ± 0.063
TAAGTATGTT | 1.002 ± 0.0031
TAAGTGAGAA | 0.983 ± 0.038
TAAGTGAGGG | 0.981 ± 0.018
TAAGTGAGGT | 0.99677 ± 0.00077
TAAGTGATG | 1 ± 0.034

Sequence | switch fluorescence ratio
TAAGTGCTGG | 1.01 ± 0.016
TAAGTGGGCC | 1 ± 0.036
TAAGTGGTCG | 1.03 ± 0.036
TAAGTTAGTC | 1.02 ± 0.012
TAAGTTATAT | 0.985 ± 0.015
TAAGTTATGG | 0.997 ± 0.02
TAAGTTGATC | 0.989 ± 0.053
TAAGTTGGTA | 0.9521 ± 0.0054
TAAGTTGGTG | 0.976 ± 0.018
TAAGTTTTAG | 1.07 ± 0.081
TAATAAAATT | 1.04 ± 0.083
TAATAAATGT | 0.9941 ± 0.0044
TAATAAGGCT | 0.9935 ± 0.0076
TAATAATCTA | 1.01 ± 0.027
TAATAATTCT | 0.99 ± 0.019
TAATACCAAG | 1 ± 0.029
TAATACTATG | 1.05 ± 0.074
TAATACTTAT | 0.994 ± 0.033
TAATAGGCCT | 1.026 ± 0.01
TAATAGGTTG | 0.97 ± 0.012
TAATAGTTCC | 1.106 ± 0.0025
TAATAGTTT | 1.04 ± 0.033
TAATATATTT | 1.01 ± 0.028
TAATATTTAA | 1.05 ± 0.009
TAATCACAAT | 1.032 ± 0.0044
